Laboratory results as given in patent US20170218081A1 (OHIO STATE INNOVATION FOUNDATION, published 2017).

B1: 3E8.scFv (scFv)
scFv: GSSGDIVMTQSPDSLAVSLGERATINCKSSQSVLYSSNNKNYLAWYQQKPGQPPKLLIYWASTRESGVPDRFSGSGSGTDFTLTISSLQAEDVAVYYCQQYYSYPLTFGGGTKVEIKLSADDAKKDAAKKDDAKKDDAKKDLQVQLVQSGAEVKKPGASVKVSCKASGYTFTDHAIHWVRQAPGQRLEWMGYFSPGNDDFKYSQKFQGRVTITADKSASTAYMELSSLRSEDTAVYYCARSWIMQYWGQGTLVTVSS
notes: Labelled at lysines with fluorescein for the fluorescence dot blots and with biotin for the HRP dot blot and IHC; also called the scFv of 3E8; 3E8 scFv single chain
B2: 3E8 IgG (antibody, V domains shown)
VH: QVQLVQSGAEVKKPGASVKVSCKASGYTFTDHAIHWVRQAPGQRLEWMGYFSPGNDDFKYSQKFQGRVTITADKSASTAYMELSSLRSEDTAVYYCARSWIMQYWGQGTLVTVSS
VL: not shown
notes: Full-length humanized monoclonal IgG, gift from Enlyton, Ltd; Fluorescein-labelled at lysines in the dot blots; also called the bivalent IgG; full-length 3E8 IgG

What was measured:
[1] = target: T1, Bovine submaxillary mucin (bovine); experiment: estimate from the competition dot blot against labeled 3E8.IgG
T1 construct: Glycoprotein used as the TAG-72-positive antigen in dot blots and SPR; also called BSM; TAG-72 positive mucin

[2] = target: T1, Bovine submaxillary mucin; experiment: competition dot blot; unlabeled scFv against 0.25 µM fluorescein-labeled 3E8 IgG on BSM
Protocol: (§1) A similar dot blot experiment was performed using constant concentrations of BSM and fluorescein-labeled 3E8 IgG. The assays were performed with increasing concentrations of unlabeled 3E8.scFv. […] Two negative controls were performed in parallel. […] By 4 μM scFv about half of the IgG is displaced and by […] the dot blot resembles the negative control. This analysis estimates that 3E8.scFv binds approximately 16-fold weaker than 3E8.IgG and both bind the same epitope. The slight loss in affinity is expected since the native IgG is bivalent versus the monovalent scFv.
(§2) The epitope binding of the 3E8.scFv was assayed for its ability to inhibit 3E8.IgG binding. Here, 0.25 μM labeled 3E8.IgG competed with increasing concentrations of nonlabeled 3E8.scFv (0 to 8 μM). The loss of fluorescence was observed using the Typhoon phosphorimager with 488 nm excitation.

[3] = target: T1, Bovine submaxillary mucin; experiment: estimate from the competition dot blot on BSM
Protocol: as §1, §2

[4] = target: T1, Bovine submaxillary mucin; experiment: SPR
[5] = target: T2, bovine serum albumin (bovine, UniProt P02769 25-607); experiment: fluorescence dot blot on nitrocellulose
T2 construct: also called BSA
T2 sequence (P02769 25-607 limits assumed): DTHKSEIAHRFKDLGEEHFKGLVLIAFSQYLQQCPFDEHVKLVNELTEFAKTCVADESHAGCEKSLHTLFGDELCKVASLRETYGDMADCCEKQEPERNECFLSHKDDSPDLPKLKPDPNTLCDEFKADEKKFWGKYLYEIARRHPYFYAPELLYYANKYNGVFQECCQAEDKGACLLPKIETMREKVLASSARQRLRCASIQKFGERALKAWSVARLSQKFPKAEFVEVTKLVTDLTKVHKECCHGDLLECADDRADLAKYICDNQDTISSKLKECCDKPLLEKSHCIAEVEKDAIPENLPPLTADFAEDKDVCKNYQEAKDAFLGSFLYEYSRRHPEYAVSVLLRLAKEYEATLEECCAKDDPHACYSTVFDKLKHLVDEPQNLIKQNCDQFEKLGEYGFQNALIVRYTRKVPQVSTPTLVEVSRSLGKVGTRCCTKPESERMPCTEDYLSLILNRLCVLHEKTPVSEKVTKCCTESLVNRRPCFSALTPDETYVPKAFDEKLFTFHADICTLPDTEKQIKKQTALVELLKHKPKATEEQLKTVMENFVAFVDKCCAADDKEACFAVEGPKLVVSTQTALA
Protocol: Bovine submaxillary mucin is positive for the TAG-72 epitope, sialyl-Tn. To qualitatively assay binding, BSM was spotted on a nitrocellulose membrane and then blocked with bovine serum albumin (BSA). The antibodies and fragments were labeled nonspecifically at lysines with the NHS-ester of fluorescein, and then were added to the dot blots. After gentle washing the samples were imaged using a Typhoon phosphorimager.
Qualitative binding to sialyl-Tn was assayed by dot-blotting. First, 2 μL of 5 mg mL⁻¹ bovine submaxillary mucin (M3895-Sigma) was spotted on a nitrocellulose membrane. The membrane was allowed to dry overnight before blocking with 5 mg mL⁻¹ BSA. After overnight incubation, excess BSA was removed by washing before addition of fluorescein-labeled scFvs. The scFvs were incubated for 3 hours at room temperature before washing. Fluorescence was observed using a Typhoon phosphorimager with 488 nm excitation.

[6] = target: T1, Bovine submaxillary mucin; experiment: SPR, BSM immobilised on CM5 chip
Protocol: To further confirm the binding data, surface plasmon resonance on 3E8.IgG, CC49.scFv, and 3E8.scFv (FIG. 7c) was determined. […] Next the affinity of the scFv of CC49 was measured. CC49.scFv binds in the mid-nanomolar range with a dissociation constant of 30±8 nM. Finally, SPR was conducted on 3E8.scFv and found it to bind 2-fold better than CC49.scFv and only 4-fold weaker than the bivalent IgG. At 16±4 nM, 3E8.scFv binds better than clinically tested CC49.IgG and scFv variants of CC49, and has more desirable biophysical properties than full-length antibodies.
The binding parameters were evaluated using surface plasmon resonance (SPR). BSM was immobilized on a CM5 dextran sensor chip using the GE Pharmacia amine coupling kit (BR-1000-50). Scouting conditions were 200 μg mL⁻¹ BSM in 100 mM sodium acetate, pH 4 for channel 2, and 10 μg mL⁻¹ BSA in 100 mM sodium acetate, pH 4 for channel 1. The immobilization protocol continued until 700 RU were obtained. Binding was measured as 2-1. Antibody and fragments were dialyzed into 10 mM HEPES, 150 mM NaCl, 3.4 μM EDTA, 0.005% surfactant P20 (GE Healthcare) and were assayed from 0-400 nM. Samples were bound for 120 seconds at 10 μL min⁻¹ and dissociation was measured for 180 seconds. The CM5 chip was regenerated between trials with 6 M guanidine and 200 mM acetic acid with no loss in activity. The average binding parameters were evaluated using the BIAevaluation software.

[7] = target: T1, Bovine submaxillary mucin; experiment: SPR on immobilised BSM
[8] = target: T2, bovine serum albumin; experiment: negative control of the competition dot blot, fluorescein-labeled IgG, no BSM
Protocol: as §1, §2

Binder | Kd [1] [nM] | IC50 [2] [µM] | fold weaker binding than 3E8.IgG [3] [fold] | Kd [4] [nM] | binding result [5] | Kd [6] [nM] | fold tighter binding than CC49.scFv [6] [fold] | fold weaker binding than 3E8 IgG [6] [fold] | Kd [7] [nM] | binding result [8]
B1 | ~10.4 | ~4 | ~16 | 16.4 | no binding | 16 | 2 | 4 | 12 | 
B2 |  |  |  |  |  | 4 |  |  |  | no binding (tested: 0.25 µM)
